From the RNAGym collection of RNA variant scans (doi:10.7554/elife.80360)

B1: Hairpin Ribozyme (parent)
chain: GUCCUCUUUCACGUGCGCGUGAAAGAGAGAAGUGAACCAGAGAAACACACGUUGUGGUAUAUUACCUGGUA

Variants of: B1
Test: self-cleavage, relative activity (ratio to wild type); higher = more cleavage; co-transcriptional

Variant | self-cleavage
GUCCGCUUUCACGUGCGCGUGAAAGAGAGAAGUGAACCAGAAAAACACACGUUGUGGUAUAUUACCUGGUA [U5G G42A] | 0.0213
GUCCGCUUUCACGUGCGCGUGAAAGAGAGAACUGAACCAGAGAAACACACGUUGUGGUAUAUUACCUGGUA [U5G G32C] | 0.091
GUCCUAUUUCACGUGCGCGUGAGAGAGAGAAGUGAACCAGAGAAACACACGUUGUGGUAUAUUACCUGGUA [C6A A23G] | 0.387
GUCCUAUUUCACGUGCGCGUGAAAGAGAGAGGUGAACCAGAGAAACACACGUUGUGGUAUAUUACCUGGUA [C6A A31G] | 0.446
GUCCUAUUUCACGUGCGCGUGAAAGAGAGAUGUGAACCAGAGAAACACACGUUGUGGUAUAUUACCUGGUA [C6A A31U] | 0.0881
GUCCUAUUUCACGUGCGCGUGAAAGAGAGACGUGAACCAGAGAAACACACGUUGUGGUAUAUUACCUGGUA [C6A A31C] | 0.1
GUCCGCUUUCACGUGCGCGUGAAAGACAGAAGUGAACCAGAGAAACACACGUUGUGGUAUAUUACCUGGUA [U5G G27C] | 0.0408
GUCCGCUUUCAGGUGCGCGUGAAAGAGAGAAGUGAACCAGAGAAACACACGUUGUGGUAUAUUACCUGGUA [U5G C12G] | 0.239
GUCCGCUUUCAUGUGCGCGUGAAAGAGAGAAGUGAACCAGAGAAACACACGUUGUGGUAUAUUACCUGGUA [U5G C12U] | 0.529
GUCCUAUUUCACGUGCGCGUGAAAGAGAGAAGUGAACCUGAGAAACACACGUUGUGGUAUAUUACCUGGUA [C6A A39U] | 0.33
GUCCUAUUUCACGUGCGCGUGAAAGAGAGAAGUGAACCGGAGAAACACACGUUGUGGUAUAUUACCUGGUA [C6A A39G] | 0.243
GUCCGCUUUCACGUGCGCGUGAAAGAGAGAAGUGAACCAGAGAAACACAAGUUGUGGUAUAUUACCUGGUA [U5G C50A] | 0.184
GUCCGCUUUCACGUGCGCGUGAAAGAGAGAAGUGAACCAGAGAAACACAGGUUGUGGUAUAUUACCUGGUA [U5G C50G] | 0.165
GUCCGCUUUCACGUGCGCGUGAAAGAGAGAAGUGAACCAGAGAAACACACGUUGUGGUAGAUUACCUGGUA [U5G U60G] | 0.353
GUCCUAUUUCACGUGCGCGUGGAAGAGAGAAGUGAACCAGAGAAACACACGUUGUGGUAUAUUACCUGGUA [C6A A22G] | 0.453
GUCCGCUUUCACGUGCGCGUGAAAGAGAGAAGUGAACCAGAGAAACACACAUUGUGGUAUAUUACCUGGUA [U5G G51A] | 0.377
GUCCGCUUUCACGUGCGCGUGAAAGAGAGAAGUGAACCAGAGAAACACACCUUGUGGUAUAUUACCUGGUA [U5G G51C] | 0.221
GUCCGCUUUCACGUGCGCGUCAAAGAGAGAAGUGAACCAGAGAAACACACGUUGUGGUAUAUUACCUGGUA [U5G G21C] | 0.177
GUCCGCUUUCACGUGCGCGUGAAAGAGAGAAGUGAACCAGAGAAAUACACGUUGUGGUAUAUUACCUGGUA [U5G C46U] | 0.279
GUCCGCUUUCACGUGCGCGUGAAAGAGAGAAGUGAACCAGAGAAAGACACGUUGUGGUAUAUUACCUGGUA [U5G C46G] | 0.243
GUCCGCUUUCACGUGCGCGUGAAAGAGAGAAGUGAACCAGAGAAACACACGUUGUGGUAUAUUACGUGGUA [U5G C66G] | 0.127
GUCCGCUAUCACGUGCGCGUGAAAGAGAGAAGUGAACCAGAGAAACACACGUUGUGGUAUAUUACCUGGUA [U5G U8A] | 0.126
GUCCGCUUUCACGUGCGCGUGAAAGAGAGAAGUGAACCAGAGAAACACACGUUGUGGUAUACUACCUGGUA [U5G U62C] | 0.129
GUCCGCUUUCACGUGCGCGUGAAAGAGAGAAGUGAACCAGAGAAACACACGUUGUGGUAUAAUACCUGGUA [U5G U62A] | 0.124
GUCCGCUUUCACGUGCGAGUGAAAGAGAGAAGUGAACCAGAGAAACACACGUUGUGGUAUAUUACCUGGUA [U5G C18A] | 0.37
GUCCGCUUUCACGUGCGCGUGAAAGAGAGAAGUGAAUCAGAGAAACACACGUUGUGGUAUAUUACCUGGUA [U5G C37U] | 0.516

Variant | self-cleavage
GUCCGCUUUCACGUGCGCGUGAAAGAGAGAAGUGAAACAGAGAAACACACGUUGUGGUAUAUUACCUGGUA [U5G C37A] | 0.23
GUCCUAUUUCACGUGCGCGUGAAAGAGAGAAGUGAACCAGAGUAACACACGUUGUGGUAUAUUACCUGGUA [C6A A43U] | 0.131
GUCCGCUUUCACGUGCGCGUGAAAGAGAGAAGUCAACCAGAGAAACACACGUUGUGGUAUAUUACCUGGUA [U5G G34C] | 0.886
GUCCGCUUUCACGUGCGCGUGAAAGAGAGAAGUAAACCAGAGAAACACACGUUGUGGUAUAUUACCUGGUA [U5G G34A] | 0.603
GUCCUAUUUCACGUGCGCGUGAAAGAGAGAAGUGACCCAGAGAAACACACGUUGUGGUAUAUUACCUGGUA [C6A A36C] | 0.393
GUCCUAUUUCACGUGCGCGUGAAAGAGAGAAGUGAUCCAGAGAAACACACGUUGUGGUAUAUUACCUGGUA [C6A A36U] | 0.384
GUCCUAUUUCACGUGCGCGUGAAAGAGAGAAGUGAGCCAGAGAAACACACGUUGUGGUAUAUUACCUGGUA [C6A A36G] | 0.595
GUCCGCUUUCACGUGCGCGUGAAAGAGACAAGUGAACCAGAGAAACACACGUUGUGGUAUAUUACCUGGUA [U5G G29C] | 0.0639
GUCCGCUUUCACGUGCGCGUGAAAGAGAGAAGUGAACCAGAGAAACACACGUUGUGGUAUAUUAACUGGUA [U5G C65A] | 0.268
GUCCGCUUUCACGUGCGCGUGAAAGAGAGAAGUGAACCAGAGAAACACACGUUGUGGUAUAUUAUCUGGUA [U5G C65U] | 0.218
GUCCUAUUUCACGUGCGCGUGAAAGAGAGGAGUGAACCAGAGAAACACACGUUGUGGUAUAUUACCUGGUA [C6A A30G] | 0.131
GUCCGCUUUCACGUGCGCGUGAAAGAGAGAAGUGAACCAGAGAAACACACGUUGUCGUAUAUUACCUGGUA [U5G G56C] | 0.124
GUCCGCUUUCACGUGCGCGUGAAAGAGAGAAGUGAACCAGAGAAACACACGUUGUAGUAUAUUACCUGGUA [U5G G56A] | 0.0193
GUCCGCUUACACGUGCGCGUGAAAGAGAGAAGUGAACCAGAGAAACACACGUUGUGGUAUAUUACCUGGUA [U5G U9A] | 0.346
GUCCGCUUGCACGUGCGCGUGAAAGAGAGAAGUGAACCAGAGAAACACACGUUGUGGUAUAUUACCUGGUA [U5G U9G] | 0.147
GUCCGCUUUCACGUGCGCGUGAAAGAGAGAAGUGAACCAGAGAAACACACGUUGUGGUAUAUUACCUGGGA [U5G U70G] | 0.354
GUCCUAUUUCACGUGCGCGUGAAAGAGAGAAGUGAACCAGAGAACCACACGUUGUGGUAUAUUACCUGGUA [C6A A45C] | 0.12
GUCCGCUUUCACGUGGGCGUGAAAGAGAGAAGUGAACCAGAGAAACACACGUUGUGGUAUAUUACCUGGUA [U5G C16G] | 0.146
GUCCGCUUUCACGUGUGCGUGAAAGAGAGAAGUGAACCAGAGAAACACACGUUGUGGUAUAUUACCUGGUA [U5G C16U] | 0.269
GUCCUAUUUCACGUGCGCGUGAAUGAGAGAAGUGAACCAGAGAAACACACGUUGUGGUAUAUUACCUGGUA [C6A A24U] | 0.487
GUCCGCUUUCACAUGCGCGUGAAAGAGAGAAGUGAACCAGAGAAACACACGUUGUGGUAUAUUACCUGGUA [U5G G13A] | 0.245
GUCCGCUUUCACGUGCGCGUGAAAGAGAGAAGUGAACCAGAGAAACACACGUUGUGGUAUAUGACCUGGUA [U5G U63G] | 0.0714
GUCCGCUUUCACGUGCGCGUGAAAGAGAGAAGUGAACCAGAGAAACACACGUUGUGGUAUAUAACCUGGUA [U5G U63A] | 0.127
GUCCGCUUUCACGUGCGCGUGAAAGAGAGAAGUGAACCAGAGAAACUCACGUUGUGGUAUAUUACCUGGUA [U5G A47U] | 0.0832
GUCCGCUUUCACGUGCGCGUGAAAGAGAGAAGUGAACCAGAGAAACACACGUUGUGGUAUAUUACCAGGUA [U5G U67A] | 0.275
GUCCGCUUUCACGUGCGCGUGAAAGAGAGAAGUGAACCAGAGAAACACACGUUGUGGUAUAUUACCCGGUA [U5G U67C] | 0.117

Variant | self-cleavage
GUCCGCUUUCACGUGCGCGUGAAAGAGAGAAGUGAACCAGAGAAACACACGUCGUGGUAUAUUACCUGGUA [U5G U53C] | 0.0534
GUCCGCUUUCACGUGCGCGUGAAAUAGAGAAGUGAACCAGAGAAACACACGUUGUGGUAUAUUACCUGGUA [U5G G25U] | 0.306
GUCCUAUUUCACGUGCGCGUGAAAGAGAGAAGUGAACCAGAGAAACACACGUUGUGGUAUAUUACCUGGUA [C6A] | 0.586
GUCCGCUUUCACGUGCGCGUGAAAGAGAGAAGUGAACCAGAGAAACACACGUUUUGGUAUAUUACCUGGUA [U5G G54U] | 0.228
GUCCGCUUUUACGUGCGCGUGAAAGAGAGAAGUGAACCAGAGAAACACACGUUGUGGUAUAUUACCUGGUA [U5G C10U] | 0.317
GUCCGCUUUCACGUGCGCGUGAAAGAGAGAAGUGAACCAGAGAAACACACGUUGUGGUAUAUUACCUGGUG [U5G A71G] | 0.207
GUCCGCUUUCACGUGCGCGUGAAAGAGAGAAGUGAACCAGAGAAACACACGCUGUGGUAUAUUACCUGGUA [U5G U52C] | 0.596
GUCCGCCUUCACGUGCGCGUGAAAGAGAGAAGUGAACCAGAGAAACACACGUUGUGGUAUAUUACCUGGUA [U5G U7C] | 0.143
GUCCGCGUUCACGUGCGCGUGAAAGAGAGAAGUGAACCAGAGAAACACACGUUGUGGUAUAUUACCUGGUA [U5G U7G] | 0.171
GUCCGCUUUCACGUGCGCCUGAAAGAGAGAAGUGAACCAGAGAAACACACGUUGUGGUAUAUUACCUGGUA [U5G G19C] | 0.202
GUCCGCUUUCACGUGCGCGUGAAAGAGAGAAGAGAACCAGAGAAACACACGUUGUGGUAUAUUACCUGGUA [U5G U33A] | 0.17
GUCCGCUUUCACGUGCGCGUGAAAGAGAGAAGCGAACCAGAGAAACACACGUUGUGGUAUAUUACCUGGUA [U5G U33C] | 0.0793
GUCCGCUUUCACGUGCGCGGGAAAGAGAGAAGUGAACCAGAGAAACACACGUUGUGGUAUAUUACCUGGUA [U5G U20G] | 0.238
GUCCGCUUUCACGUGCGCGAGAAAGAGAGAAGUGAACCAGAGAAACACACGUUGUGGUAUAUUACCUGGUA [U5G U20A] | 0.279
GUCCGCUUUCACGUGCGCGUGAAAGAGAGAAGUGAACCAGAGAAACACACGUUGUGGUUUAUUACCUGGUA [U5G A59U] | 0.0694
GUCCUAUUUCACGUGCGCGUGAAAGAGAGAAGUGAACCAGGGAAACACACGUUGUGGUAUAUUACCUGGUA [C6A A41G] | 0.439
GUCCGCUUUCACGUGCGCGUGAAAGAGAGAAGUGAACCAGAGAGACACACGUUGUGGUAUAUUACCUGGUA [U5G A44G] | 0.177
GUCCGCUUUCACGUGCGCGUGAAAGAGAGAAGUGAACCAGAGAAACAGACGUUGUGGUAUAUUACCUGGUA [U5G C48G] | 0.0331
GUCCGCUUUCACGUGCGCGUGAAAGAGAGAAGUGAACCAGAGAAACAAACGUUGUGGUAUAUUACCUGGUA [U5G C48A] | 0.125
GUCCGGUUUCACGUGCGCGUGAAAGAGAGAAGUGAACCAGAGAAACACACGUUGUGGUAUAUUACCUGGUA [U5G C6G] | 0.224
GUCCGUUUUCACGUGCGCGUGAAAGAGAGAAGUGAACCAGAGAAACACACGUUGUGGUAUAUUACCUGGUA [U5G C6U] | 0.151
GUCCGAUUUCACGUGCGCGUGAAAGAGAGAAGUGAACCAGAGAAACACACGUUGUGGUAUAUUACCUGGUA [U5G C6A] | 0.321
GUCCUAUUUCACGUGCGCGUGAAAGUGAGAAGUGAACCAGAGAAACACACGUUGUGGUAUAUUACCUGGUA [C6A A26U] | 0.364
GUCCUAUUUCACGUGCGCGUGAAAGGGAGAAGUGAACCAGAGAAACACACGUUGUGGUAUAUUACCUGGUA [C6A A26G] | 0.281
